In PMC12077092, “A novel micronemal protein MP38 is involved in the invasion of merozoites into erythrocytes” (mBio, 2025):
“And” between values parts separate entries of the source, which are not always exact repeats. Identical values can stand only once.

Legend:
[1] = target: Pk12-Fc (PKNH_1137300, ectodomain F24-S344, human IgG1 Fc fusion) (Plasmodium knowlesi); experiment: BLI; Gator system, anti-human IgG Fc (HFC) probes; Fc-tagged protein immobilised (10 µM, 120 s); His-tagged protein in serial dilution (1.5 to 100 µM by the methods; 1.5625-100 nM in the key of Fig. S3C), association 300 s, dissociation 600 s in PBS; 1:1 global fit; two experiments with different batches of protein
[2] = target: Pv12-Fc (PVX_113775, ectodomain F24-A339, human IgG1 Fc fusion) (Plasmodium vivax) (UniProt A5K1W7); experiment: as above
[3] = target: Pv41-Fc (PVX_000995, ectodomain E22-E384, human IgG1 Fc fusion) (Plasmodium vivax) (UniProt A5KAP6); experiment: as above
[4] = target: Pv41 full-length ectodomain, His-tagged (Plasmodium vivax); experiment: native gel or EMSA; blue native PAGE, 4%-16%, purified His-tagged recombinant protein, Coomassie stain
[5] = target: Pv12 full-length ectodomain, human IgG1-Fc-tagged (Plasmodium vivax); experiment: BLI; Gator system, anti-human IgG Fc (HFC) probes; Fc-tagged protein immobilised (10 uM, 120 s); His-tagged protein 1.5 to 100 uM, 300 s association, 600 s dissociation in PBS; 1:1 global fit
[6] = target: Pv12 full-length ectodomain, His-tagged (Plasmodium vivax); experiment: native gel or EMSA; blue native PAGE, 4%-16%, purified His-tagged recombinant protein, Coomassie stain
[7] = target: Pv41 full-length ectodomain, human IgG1-Fc-tagged (Plasmodium vivax); experiment: BLI; Gator system, anti-human IgG Fc (HFC) probes; Fc-tagged protein immobilised (10 uM, 120 s); His-tagged protein 1.5 to 100 uM, 300 s association, 600 s dissociation in PBS; 1:1 global fit
[8] = target: T1, PvDBP-RII (194-521 aa.)-8His (Plasmodium vivax, UniProt P22290 194-521); experiment: BLI; Gator system, anti-human IgG Fc (HFC) probes; Fc-tagged protein immobilised (10 µM, 120 s); His-tagged protein in serial dilution (1.5 to 100 µM by the methods; 1.5625-100 nM in the key of Fig. S3C), association 300 s, dissociation 600 s in PBS; 1:1 global fit; two experiments with different batches of protein; details: both partners purified
T1 construct: also called PvDBPII-His; PvDBP-RII-His; source: HEK293-EBNA1 cells, transiently transfected, purified from culture supernatant (Ni-NTA); not shown: 8xHis, C-terminal, kept

[9] = target: T2, P. vivax Duffy-binding protein region II, His-tagged (194-521 aa) (Plasmodium vivax, UniProt P22290 194-521); experiment: BLI; Gator system, anti-human IgG Fc (HFC) probes; Fc-tagged protein immobilised (10 uM, 120 s); His-tagged protein 1.5 to 100 uM, 300 s association, 600 s dissociation in PBS; 1:1 global fit; details: both partners purified
T2 construct: also called PvDBPII-His; PvDBP-RII-His; source: HEK293-EBNA1 (HEK293E), transiently transfected, purified from culture supernatant (Ni-NTA); not shown: 8xHis, C-terminal, kept

Molecule: Pv41-8His (PVX_000995, ectodomain E22-E384) (from UniProt A5KAP6 22-384) (domain or fragment)
- Kd [1]: 19 nM and 11.4 nM
- Kd [2]: 12.2 nM and 16.1 nM
- koff [2]: 0.000662 s⁻¹ and 0.000803 s⁻¹
- kon [2]: 54300 M⁻¹ s⁻¹ and 50000 M⁻¹ s⁻¹

Molecule: Pk12-8His (PKNH_1137300, ectodomain F24-S344) (domain or fragment)
- Kd [3]: 184 nM and 160 nM
- koff [3]: 0.0485 s⁻¹ and 0.0454 s⁻¹
- kon [3]: 263000 M⁻¹ s⁻¹ and 284000 M⁻¹ s⁻¹

Molecule: PvMP38-8His (PVX_110945, full-length ectodomain D28-K343) (domain or fragment)
- Kd [1]: 0.833 nM and 0.96 nM
- Kd [2]: 2.39 nM and 2.56 nM

Molecule: Pv41 full-length ectodomain, His-tagged (domain or fragment)
- stoichiometry N [4]: 2
- Kd [5]: 14.2 nM

Molecule: PvMP38 (PVX_110945), full-length ectodomain, His-tagged (domain or fragment)
- Kd [5]: 2.46 nM

Molecule: Pv12-8His (PVX_113775, ectodomain F24-A339) (from UniProt A5K1W7 24-339) (domain or fragment)
- Kd [3]: 0.555 nM and 0.512 nM
- koff [3]: 0.000174 s⁻¹ and 0.000156 s⁻¹
- kon [3]: 314000 M⁻¹ s⁻¹ and 305000 M⁻¹ s⁻¹

Molecule: Pv12 full-length ectodomain, His-tagged (domain or fragment)
- stoichiometry N [6]: 2
- Kd [7]: 0.53 nM

B1: hDARC-Fc (human DARC M1-P63, human IgG1 Fc fusion) (Fc fusion, UniProt Q16570-1 1-63, looked up)
chain: MGNCLHRAELSPSTENSSQLDFEDVWNSSYGVNDSFPDGDYGANLEAAAPCHSCNLLDDSALP
notes: Duffy antigen/receptor for chemokines (DARC), human, NP_002027, region expressed M1-P63; also called human DARC-Fc; source: HEK293-EBNA1 cells, transiently transfected, purified from culture supernatant (HiTrap Protein G HP)
- Kd [8]: 3 nM and 2.39 nM

B2: human DARC-Fc (1-63 aa) (Fc fusion, UniProt Q16570 1-63, looked up)
chain: B1 chain
notes: Duffy antigen/receptor for chemokines (DARC), human, residues 1-63; also called hDARC; source: HEK293-EBNA1 (HEK293E), transiently transfected, purified from culture supernatant (Protein G)
- Kd [9]: 2.7 ± 0.43 nM
